One may read the Kd as the concentration at which binding is half-saturated.

The text below walks through data of patent US20250206799A1 (KEROS THERAPEUTICS, published 2025).

The chains are these.
B4: Activin B (ligand, UniProt P09529 293-407, looked up)
chain: GLECDGRTNLCCRQQFFIDFRLIGWNDWIIAPTGYYGNYCEGSCPAYLAGVPGSASSFHTAVVNQYRMRGLNPGTVNSCCIPTKLSTMSMLYFDDEYNIVKRDVPNMIVEECGCA
B9: Activin A (ligand, UniProt P08476 311-426, looked up)
chain: GLECDGKVNICCKKQFFVSFKDIGWNDWIIAPSGYHANYCEGECPSHIAGTSGSSLSFHSTVINHYRMRGHSPFANLKSCCVPTKLRPMSMLYYDDGQNIIKKDIQNMIVEECGCS
B13: BMP-9 (ligand, UniProt Q9UK05 320-429, looked up)
chain: SAGAGSHCQKTSLRVNFEDIGWDSWIIAPKEYEAYECKGGCFFPLADDVTPTKHAIVQTLVHLKFPTKVGKACCVPTKLSPISVLYKDDMGVPTLKYHYEGMSVAECGCR
notes: also called bone morphogenetic protein 9
B18: extracellular ActRIIA (SEQ ID NO: 16) fused to the N-terminus of hFc through a GGG linker (Fc fusion)
chain: AILGRSETQECLFFNANWEKDRTNQTGVEPCYGDKDKRRHCFATWKNISGSIEIVKQGCWLDDINCYDRTDCVEKKDSPEVYFCCCEGNMCNEKFSYFPEMEVTQPTSGGG
notes: also called ActRIIA-Fc; not shown: hFc

For the test “BMP-9”, the target named is B13. The experiment in a line: SPR (Biacore 3000), ActRII-Fc captured by anti-Fc antibody, ligand in solution. An excerpt:
(§1) The GE Biacore 3000 was used to measure the kinetics of the interactions between the ActRIIB-Fc variants and the ligands Activin A, Activin B, growth differentiation factor 11 (GDF11), and BMP-9. ActRIIA, ActRIIB, ActRIIB 2.06, ActRIIB 2.11 and ActRIIB 2.12 were recombinant proteins. All other ActRIIB-Fc variants were expressed by transient expression in HEK293 cells and purified from the conditioned media using Protein-A Sepharose chromatography. Flow cells 1-4 were immobilized with anti-human/anti-mouse capture antibodies from GE using the amine coupling kit. The ActRII-Fc proteins were then captured on the chip in flow cells 2-4, with flow cell 1 being left empty as a reference cell to measure and subtract any nonspecific binding. HBS-EP+ buffer from GE Healthcare™ was used as a running buffer. Each ligand was run in a duplicate concentration series at 40 μl/min to avoid mass transport effects. All data was collected on a CM-5 chip except for GDF-11, which used CM-4. The data was analyzed using Scrubber2 by BioLogic™ Software to calculate the KD of each interaction (Table 3).
A general note: SPR reads the build-up and loss of mass on a sensor chip optically.

The test “Activin A” concerns the target B9. The test is described as above.
From the text: as §1

For the test “Activin B”, the target named is B4. The test is described as above.
From the text: as §1

In test [1] the target is T1, growth differentiation factor 11 (GDF11) (UniProt O95390 299-407).
T1 sequence (looked up): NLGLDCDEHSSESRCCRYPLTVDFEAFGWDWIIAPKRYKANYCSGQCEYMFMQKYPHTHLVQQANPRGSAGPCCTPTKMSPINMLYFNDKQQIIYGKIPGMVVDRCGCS
The experiment in a line: SPR (Biacore 3000), ActRII-Fc captured by anti-Fc antibody, ligand in solution, CM-4 chip.
From the text: as §1

Test [2] deals with T2, extracellular ActRIIB (SEQ ID NO: 17) fused to the N-terminus of hFc through a GGG linker (human, UniProt Q13705 20-134).
T2 construct: also called ActRIIB-Fc; not shown: hFc
T2 sequence: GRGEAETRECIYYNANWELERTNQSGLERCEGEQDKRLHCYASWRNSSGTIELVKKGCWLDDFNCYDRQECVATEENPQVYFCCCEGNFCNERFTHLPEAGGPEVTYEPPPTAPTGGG
The experiment in a line: SPR (Biacore 3000), ActRII-Fc captured by anti-Fc antibody, ligand in solution.
From the text: as §1

In the next test the target is T3, BMP-9, Q9UK05.
T3 chain: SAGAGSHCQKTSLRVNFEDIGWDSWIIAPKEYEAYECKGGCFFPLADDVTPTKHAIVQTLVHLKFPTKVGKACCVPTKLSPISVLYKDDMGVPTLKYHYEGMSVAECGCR
The test is described as above. To be noted: remark: other sources report otherwise.

The target of test [3] is B18. Described as above.
From the text: as §1

B1: extracellular ActRIIB variant ActRIIB 2.01 (SEQ ID NO: 4) fused to the N-terminus of hFc through a GGG linker (Fc fusion)
chain: GRGEAETRECIYYNANWELERTNQSGLERCEGEQDKRLHCYASWRNSSGTIELVKKGCWLDDFNCYDRQECVAKKDSPEVYFCCCEGNFCNERFTHLPEAGGPEVTYEPPPTAPTGGG
notes: also called ActRIIB 2.01 variant; not shown: hFc
Take B1: the binding result (with BMP-9; with Activin A; with Activin B; in test [1]) was “no binding” throughout.

B2: extracellular ActRIIB variant ActRIIB 2.02 (SEQ ID NO: 5) fused to the N-terminus of hFc through a GGG linker (Fc fusion)
chain: GRGEAETRECIYYNANWELERTNQTGLERCEGEQDKRLHCYASWRNISGTIELVKKGCWLDDFNCYDRQECVAKKDSPEVYFCCCEGNFCNERFTHLPEAGGPEVTYEPPPTAPTGGG
notes: also called ActRIIB 2.02 variant; not shown: hFc
For the molecule B2, the binding result (with BMP-9; with Activin A; in the test with Activin B; in test [1]) was “no binding” each time.

B3: extracellular ActRIIB variant ActRIIBΔ9 (SEQ ID NO: 3) fused to the N-terminus of hFc through a GGG linker (Fc fusion)
chain: GRGEAETRECIYYNANWELDRTNQSGLERCEGEQDKRLHCYASWRNSSGTIELVKKGCWLDDINCYDRQECVATKENPQVYFCCCEGNFCNERFTHLPEAGGPEVTYEPPPTAPTGGG
notes: also called ActRIIBΔ9 variant; not shown: hFc
Turning to B3, the Kd with BMP-9 is 28 nM; with Activin A, 390 nM; with Activin B, 400 nM; in test [1], 530 nM.
In test [2], B4 yielded a Kd of 0.023 nM.

B5: extracellular ActRIIB variant ActRIIB 2.03 (SEQ ID NO: 6) fused to the N-terminus of hFc through a GGG linker (Fc fusion)
chain: GRGEAETRECIYYNANWELERTNQTGLERCEGEQDKRLHCYASWRNITGTIELVKKGCWLDDFNCYDRQECVAKKDSPEVYFCCCEGNFCNERFTHLPEAGGPEVTYEPPPTAPTGGG
notes: also called ActRIIB 2.03 variant; not shown: hFc
In the case of B5, the binding result (with BMP-9; with Activin A; in the test with Activin B; in test [1]) was “no binding” each time.

B6: extracellular ActRIIB variant ActRIIB 2.06 (SEQ ID NO: 9) fused to the N-terminus of hFc through a GGG linker (Fc fusion)
chain: GRGEAETRECIYYNANWELERTNQSGLERCEGEQDKRLHCFASWKNSSGTIELVKQGCWLDDFNCYDRQECVAKKDSPEVYFCCCEGNFCNERFTHLPEAGGPEVTYEPPPTAPTGGG
notes: also called ActRIIB 2.06 variant; not shown: hFc
On to B6, for which the Kd came to 0.3 nM with BMP-9, 0.053 nM in the test with Activin A, 0.1 nM with Activin B and 0.027 nM in test [1].

B7: extracellular ActRIIB variant ActRIIB 2.05 (SEQ ID NO: 8) fused to the N-terminus of hFc through a GGG linker (Fc fusion)
chain: GRGEAETRECIYYNANWELERTNQSGLERCYGDKDKRLHCYASWRNSSGTIELVKKGCWLDDFNCYDRQECVAKKDSPEVYFCCCEGNFCNERFTHLPEAGGPEVTYEPPPTAPTGGG
notes: also called ActRIIB 2.05 variant; not shown: hFc
Take B7: the binding result (in the test with BMP-9; with Activin A; in the test with Activin B; in test [1]) was “no binding” throughout.

B8: extracellular ActRIIB variant ActRIIB 2.08 (SEQ ID NO: 11) fused to the N-terminus of hFc through a GGG linker (Fc fusion)
chain: GRGEAETRECIYYNANWELERTNQSGLERCYGDQDKRRHCYASWRNSSGTIELVKKGCWLDDFNCYDRQECVAKKDSPEVYFCCCEGNFCNERFTHLPEAGGPEVTYEPPPTAPTGGG
notes: also called ActRIIB 2.08 variant; not shown: hFc
For B8, the binding result (with BMP-9; in the test with Activin A; in the test with Activin B; in test [1]) was “no binding” each time.
With B9, the affinity in test [2], expressed as Kd, was 0.063 nM.

B10: extracellular ActRIIB variant ActRIIB 2.04 (SEQ ID NO: 7) fused to the N-terminus of hFc through a GGG linker (Fc fusion)
chain: GRGEAETRECIYYNANWELERTNQSGLEPCEGEQDKRLHCYASWRNSSGTIELVKKGCWLDDFNCYDRQECVAKKDSPEVYFCCCEGNFCNERFTHLPEAGGPEVTYEPPPTAPTGGG
notes: also called ActRIIB 2.04 variant; not shown: hFc
Regarding B10, the binding result (with BMP-9; in the test with Activin A; with Activin B; in test [1]) was “no binding” each time.

B11: extracellular ActRIIB variant ActRIIB/A (SEQ ID NO: 2) fused to the N-terminus of hFc through a GGG linker (Fc fusion)
chain: GRGEAETRECIFYNANWEKDRTNQSGLEPCYGDQDKRRHCFASWKNSSGTIELVKQGCWLDDINCYDRQECVAKKDSPEVYFCCCEGNFCNERFTHLPEAGGPEVTYEPPPTAPTGGG
notes: also called ActRIIB/A variant; not shown: hFc
For the molecule B11, the binding result (with Activin A; in the test with Activin B; in test [1]) was “no binding” each time. This molecule came in with a Kd in the test with BMP-9, Q9UK05 of 88 nM.

B12: extracellular ActRIIB variant ActRIIB 2.07 (SEQ ID NO: 10) fused to the N-terminus of hFc through a GGG linker (Fc fusion)
chain: GRGEAETRECIFYNANWEKDRTNQSGLERCEGEQDKRLHCYASWRNSSGTIELVKKGCWLDDFNCYDRQECVAKKDSPEVYFCCCEGNFCNERFTHLPEAGGPEVTYEPPPTAPTGGG
notes: also called ActRIIB 2.07 variant; not shown: hFc
As for B12, the binding result (with BMP-9; in the test with Activin A; with Activin B; in test [1]) was “no binding” throughout.
Turning to B13, the Kd is 25 nM in test [3] and 0.28 nM in test [2].

B14: ActRIIB 2.11 (SEQ ID NO: 14)-Fc (Fc fusion, not shown: a dimerising Fc or GST)
chain: GRGEAETRECLYYNANWELERTNQSGVERCEGEKDKRLHCYASWRNSSGSLEIVKKGCWLDDFNCYDRTDCVATKENPQVYFCCCEGNMCNERFTHLPEAGGPEVTYEPPPTAPT
notes: also called ActRIIB 2.11 variant; ActRIIB 2.11-Fc
For B14, the Kd amounted to 2.7 nM in the test with BMP-9, 0.78 nM with Activin A, 0.37 nM with Activin B and 0.24 nM in test [1].

B15: ActRIIB 2.12 (SEQ ID NO: 15)-Fc (Fc fusion, not shown: a dimerising Fc or GST)
chain: GRGEAETRECLYYNANWELERTNQSGVERCEGEKDKRLHCYASWRNSSGSLEIVKKGCWLDDFNCYDRDTCVATKENPQVYFCCCEGNMCNERFTHLPEAGGPEVTYEPPPTAPT
notes: also called ActRIIB 2.12 variant; ActRIIB 2.12-Fc
B15: the equilibrium dissociation constant (Kd) came to 31 nM with BMP-9, 0.14 nM with Activin A, 0.16 nM in the test with Activin B and 0.13 nM in test [1].

B16: extracellular ActRIIB variant ActRIIB 2.09 (SEQ ID NO: 12) fused to the N-terminus of hFc through a GGG linker (Fc fusion)
chain: GRGEAETRECLYYNANWELERTNQSGVERCEGEKDKRLHCYASWRNSSGSLEIVKKGCWLDDFNCYDRTDCVATEENPQVYFCCCEGNMCNERFTHLPEAGGPEVTYEPPPTAPTGGG
notes: also called ActRIIB 2.09 variant; not shown: hFc
As to B16, the figures for the Kd with BMP-9, in the test with Activin A and in the test with Activin B were 0.44 nM, 0.1 nM and 0.16 nM, respectively.

B17: extracellular ActRIIB variant ActRIIB 2.10 (SEQ ID NO: 13) fused to the N-terminus of hFc through a GGG linker (Fc fusion)
chain: GRGEAETRECLYYNANWELERTNQSGVERCEGEKDKRLHCYASWRNSSGSLEIVKKGCWLDDFNCYDRDTCVATEENPQVYFCCCEGNMCNERFTHLPEAGGPEVTYEPPPTAPTGGG
notes: also called ActRIIB 2.10 variant; not shown: hFc
Take B17: the Kd is 1.7 nM in the test with BMP-9, 0.45 nM with Activin A and 0.28 nM with Activin B.
As for B18, the Kd with Activin A was found to be 1 nM; with Activin B it was 0.37 nM.
